The values that follow come from publication PMC1540706 (2006).

Sequences and labels used below:
B1: β-arrestin P-long peptide [not stated] / human β2-appendage (700–937) used for ITC [human] (parent complex)
chain 1: DDDIVFEDFARQRLKGMKDD
chain 2: IGMAPGGYVAPKAVWLPAVKAKGLEISGTFTHRQGHIYMEMNFTNKALQHMTDFAIQFNKNSFGVIPSTPLAIHTPLMPNQSIDVSLPLNTLGPVMKMEPLNNLQVAVKNNIDVFYFSCLIPLNVLFVEDGKMERQVFLATWKDIPNENELQFQIKECHLNADTVSSKLQNNNVYTIAKRNVEGQDMLYQSLKLTNGIWILAELRIQPGNPNYTLSLKCRAPEVSQYIYQVYDSILKN
B2: Eps15 P-short peptide [not stated] / human β2-appendage (700–937) used for ITC [human] (parent complex)
chain 1: SFGDGFADFSTL
chain 2: B1 chain 2
B3: 6× His human Eps15-MD (530–791) [human] / human β2-appendage (700–937) used for ITC [human] (parent complex)
chain 1: STSSSETANLNEHVEGQSNLESEPIHQESPARSSPELLPSGVTDENEVTTAVTEKVCSELDNNRHSKEEDPFNVDSSSLTGPVADTNLDFFQSDPFVGSDPFKDDPFGKIDPFGGDPFKGSDPFASDCFFRQSTDPFATSSTDPFSAANNSSITSVETLKHNDPFAPGGTVVAASDSATDPFASVFGNESFGGGFADFSTLSKVNNEDPFRSATSSSVSNVVITKNVFEETSVKSEDEPPALPPKIGTPTRPCPLPPGKRSI
chain 2: B1 chain 2

In the first assay the parent is B1. Nature of the assay: ITC. On the technique in general: In ITC the heat of successive injections is recorded.
Broadly, the Kd is a measure of binding affinity in units of concentration. Consider chain 2 Y116A, for which the Kd amounted to 1700 nM.

In another assay the parent is B1. Nature of the assay: ITC; stoichiometry (1.2).
Turning to chain 2 R180A, the Kd stood at 170 nM.

The variants in another assay derive from B2. Nature of the assay: ITC.
For the variant chain 2 Y189V, the Kd was determined as 59 µM.

The variants in a further assay derive from B3. Nature of the assay: ITC; stoichiometry (1.9).
chain 2 Y189V: the dissociation constant Kd worked out at 11 µM.
